Laboratory results published in US9951373B2, “Oplophorus-derived luciferases, novel coelenterazine substrates, and methods of use” (Promega Corporation, priority 2010, dated 2018).

Experiments:
[1] = test system: NIH3T3 cells; test: Luminescence of OgLuc variants expressed in NIH3T3 cells; format: cell-based
Description: The PCR library in the pF4Ag-based non-fusion background was screened for additional variants with increased luminescence compared to 9B8 opt+K33N+170G (SEQ ID NOs: 68 and 69). Selected variants were then assayed in HEK293 and NIH3T3 cells. For each cell type, 15,000 cells were plated and grown overnight at 37° C. The next day, the cells were transfected as described in Example 25 with 10 ng pGL4.13 (Promega Corp.) as a transfection control and 100 ng of the OgLuc test DNA. The media was removed, and the cells were lysed with 100 μL of lysis buffer as described in Example 25 except the lysis buffer contained 100 mM MES pH 6.0 instead of HEPES, and luminescence measured using a GLOMAX® Luminometer.
Based on the above data, further combination variants were designed and generated (see Table 10) in the context of the pF4Ag-based non-fusion vector background without the 170G. The variants were analyzed in E. coli, HEK293 and NIH3T3 cells as described above and compared to 9B8 opt+K33N. The variants were also examined for luminescence with native coelenterazine.
The brightness of the variants expressed in HEK293 and NIH3T3 cells was measured as described previously. The luminescence of the variants was normalized to the luminescence generated by 9B8 opt (Table 27).

[2] = Km of L27V reversion variants, PBI-3939; format: biochemical
Description: Relative activities <1 indicate the reversion is detrimental compared to the residue at that site in the L27V variant. Relative activities >1 indicate the reversion is favorable for activity compared to the residue at that site in the L27V variant. Some additional data on these mutants indicated the following: 166K, 54F, 54A and L27V were tested for thermal stability. The T1/2 60° C. for 166K, 54F, and 54A were 87, 74, and 33%, respectively, indicating these substitutions cause a reduction in thermal stability. […] This indicates higher substrate affinity for L27V, particularly for the position 54 substitutions.

[3] = Enzyme kinetics of OgLuc variants in E. coli lysates; format: biochemical; details: PBI-3939, E. coli lysates
Description: Using methods known in the art, enzyme kinetic assays measuring luminescence were performed with the lysates of E. coli containing IV and the IV variants 15C1, 9B8, 9F6, and 9A3. […] Two fold serial dilutions of PBI-3939 in the assay buffer described previously in Example 26 were assayed with the diluted lysates. […] Variants 9B8 and 9F6 had higher Km values compared to IV while Km values for the other variants were unchanged.
Luminescence was measured on a TECAN® INFINITE® F500 luminometer.
The enzyme kinetics values were determined for the OgLuc variants as described previously, except luminescence was measured using a GLOMAX® luminometer. Three replicates were used for each variant.

[4] = Thermal stability of OgLuc variants at 60° C.; format: physicochemical; details: 60° C., assay buffer MES pH 6.0
Description: Aliquots were removed at different time-points and placed on dry ice to freeze the samples. […] Luminescence was measured on a GLOMAX® luminometer (Promega Corp.).
The thermal stability of the variants at 60° C. was examined as described above, except the assay buffer contained 100 mM MES pH 6.0 instead of HEPES.

[5] = test system: HEK293 cells; test: Luminescence in sandwich background, HEK293 cells; format: cell-based, human; details: non-sandwich versus sandwich
Description: The PCR library in the Id-OgLuc-HT7 sandwich background was screened for additional variants with increased luminescence compared to 9B8 opt+K33N in sandwich background. Selected variants were then assayed in HEK293 and NIH3T3 cells. […] 1F7 (F) (SEQ ID NOs: 84 and 85) and 15H1 (F) (SEQ ID NOs: 86 and 87) had at least 1.3 fold-increase in luminescence in E. coli. 1F7 (F) was brighter than 9B8 opt+K33N in the sandwich background in HEK293 and NIH3T3 cells.
The variants 9B8 opt+K33N+T39T+K43R+Y68D (“V2”; SEQ ID NOs: 92 and 93), 9B8 opt+K33N+L27V+K43R+Y68D (SEQ ID NOs: 339 and 340), 9B8 opt+K33N+L27V+T39T+K43R+S66N (SEQ ID NOs: 341 and 342), and 9B8 opt+K33N+L27V+T39T+K43R+Y68D (“L27V”; SEQ ID NOs: 88 and 89) were subcloned into the Id-OgLuc-HT7 sandwich background as described above and assayed in HEK293 and NIH3T3 cells as described above. The luminescence generated by the sandwiched variants were compared to the luminescence generated by the […] sandwich (SEQ ID NOs: 59 and 60) (Table 38). The L27V sandwich (SEQ ID NOs: 90 and 91) and V2 sandwich (SEQ ID NOs: 94 and 95) had at least 1.3× fold-increase in luminescence in HEK293 and NIH3T3 cells.
The sandwich and non-sandwich versions of the variants V2, 9B8 opt+K33N+L27V+K43R+Y68D, 9B8 opt+K33N+L27V+T39T+K43R+S66N, and L27V were assayed in HEK293 and NIH3T3 cells as described in Example 37. The luminescence generated by the non-sandwiched variants was compared to the luminescence generated by the sandwiched variants (Table 39).

[6] = target: T1, caspase-3 (Homo sapiens, UniProt P42574); test: Bioluminescent caspase-3 assay with L27V variant; format: biochemical; details: luminescence, 3 hrs room temperature
T1 sequence (P42574 29-175 limits assumed): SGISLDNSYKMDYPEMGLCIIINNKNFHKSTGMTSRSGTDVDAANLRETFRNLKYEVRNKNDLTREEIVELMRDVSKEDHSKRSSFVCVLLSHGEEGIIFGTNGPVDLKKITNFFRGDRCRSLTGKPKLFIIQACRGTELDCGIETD
T1 sequence (P42574 176-277 limits assumed): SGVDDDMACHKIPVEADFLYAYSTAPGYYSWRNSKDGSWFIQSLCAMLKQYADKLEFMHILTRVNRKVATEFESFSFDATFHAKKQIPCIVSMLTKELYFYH
Description: (§1) 2. The L27V variant was used in a bioluminescent assay using a pro-coelenterazine substrate comprising the DEVD caspase-3 cleavage sequence. Purified caspase-3 enzyme (1 mg/mL) in 100 mM MES pH 6 (50 μL) was mixed with 227 nM L27V02 variant and 47 μM PBI-3741 (z-DEVD-coelenterazine-h) in assay buffer (50 μL). Reactions were incubated for 3 hrs at room temperature, and luminescence detected as previously described. The assay with the L27V variant was compared to a firefly luciferase version of the assay, CASPASE-GLO® 3/7-Assay system (Caspase-Glo; Promega Corp.).

[7] = test system: caspase-3; test: Bioluminescent caspase-3 assay with L27V variant; format: biochemical; details: luminescence, 3 hrs room temperature
Description: as §1

B1: L27V: 9B8 opt+K33N variant with L27V, T39T, K43R, Y68D (SEQ ID NO: 89) (protein)
chain: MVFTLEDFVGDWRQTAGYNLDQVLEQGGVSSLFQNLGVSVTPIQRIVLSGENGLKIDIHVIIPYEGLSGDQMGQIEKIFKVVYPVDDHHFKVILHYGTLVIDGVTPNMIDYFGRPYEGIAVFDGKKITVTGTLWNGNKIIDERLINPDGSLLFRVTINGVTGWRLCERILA
- luminescence normalized to 9B8 opt, NIH3T3 ([1]; PBI-3939): 1.6
- Fold over 9B8 opt + K33N, NIH3T3 ([1]; luminescence, PBI-3939): 0.7
- Fold over Native Coelenterazine, NIH3T3 ([1]; relative specificity for PBI-3939 compared to native coelenterazine): 85
- Km [2]: 18 µM
- Km [3]: 13.9 µM
- Vmax [3]: 190,000,000 RLU/0.5 sec
- 1/2 life hours [4]: 21.7 h
- Fold-decrease in luminescence in the presence of sandwich background, HEK 293 [5]: 6
- (+) caspase [6]: 11,532
- (−) caspase [7]: 803
